According to patent US9969998B2, “Compositions of adenosine deaminase-2 (ADA2), variants thereof and methods of using same” (Halozyme, Inc., priority 2014, dated 2018):

Columns and labels:
[1] = Adenosine deaminase (ADA) enzymatic activity assay kit; type: biochemical; conditions: for adenosine deaminase activity mU/mL / ΔA/min, adenosine deaminase activity: protein diluted to 5 μg/mL, serially diluted 2 fold (Table 21); for % activity vs. WT: relative to rHuADA2 WT (Table 21)
[2] = Heparin-affinity chromatography (heparin-Sepharose, SDS-PAGE); type: binding; conditions: for Heparin Column Binding: compared to WT rHuADA2, 0.3 mg/mL protein
Procedure: To assess binding of variants to heparin, heparin-affinity chromatography was employed to identify heparin-bound variants. Heparin binding was tested by mixing 35 μL of rHuADA2 WT and variants with 20 μL heparin-Sepharose™ resin (GE Healthcare, Pittsburgh, Pa.; Cat. No. 17-0998-01), followed by incubating at room temperature for 30 min. The mixture was then centrifuged through a 0.22 μm centrifuge filter and the flow-through, containing the unbound protein, was collected for analysis on an SDS-PAGE gel. 35 μL of 1.5 M NaCl was added to heparin-Sepharose resin and incubated at room temperature (RT) for 10 min to elute the remaining heparin-bound protein from the heparin-Sepharose. Samples of purified WT rHuADA2 and tested variants, before and after mixing with the heparin-Sepharose resin, were analyzed by SDS-PAGE to compare the degree of heparin binding.

B1: R23D: ADA2 variant SEQ ID NO:29 (protein)
chain: IDETRAHLLLKEKMMRLGGDLVLNTKEELANERLMTLKIAEMKEAMRTLIFPPSMHFFQAKHLIERSQVFNILRMMPKGAALHLHDIGIVTMDWLVRNVTYRPHCHICFTPRGIMQFRFAHPTPRPSEKCSKWILLEDYRKRVQNVTEFDDSLLRNFTLVTQHPEVIYTNQNVVWSKFETIFFTISGLIHYAPVFRDYVFRSMQEFYEDNVLYMEIRARLLPVYELSGEHHDEEWSVKTYQEVAQKFVETHPEFIGIKIIYSDHRSKDVAVIAESIRMAMGLRIKFPTVVAGFDLVGHEDTGHSLHDYKEALMIPAKDGVKLPYFFHAGETDWQGTSIDRNILDALMLNTTRIGHGFALSKHPAVRTYSWKKDIPIEVCPISNQVLKLVSDLRNHPVATLMATGHPMVISSDDPAMFGAKGLSYDFYEVFMGIGGMKADLRTLKQLAMNSIKYSTLLESEKNTFMEIWKKRWDKFIADVATK
modifications: human ADA2 R20D, mature numbering
enzymatic activity relative to WT rHuADA2 [1]: reduced adenosine deaminase activity | adenosine deaminase activity mU/mL [1]: 15.9 mU/mL | ΔA/min, adenosine deaminase activity [1]: 6.9 | % activity vs. WT [1]: 20.3% | heparin binding compared to WT [2]: reduced heparin binding | Heparin Column Binding [2]: Reduced

B2: R369A: ADA2 variant SEQ ID NO:31 (protein)
chain: IDETRAHLLLKEKMMRLGGRLVLNTKEELANERLMTLKIAEMKEAMRTLIFPPSMHFFQAKHLIERSQVFNILRMMPKGAALHLHDIGIVTMDWLVRNVTYRPHCHICFTPRGIMQFRFAHPTPRPSEKCSKWILLEDYRKRVQNVTEFDDSLLRNFTLVTQHPEVIYTNQNVVWSKFETIFFTISGLIHYAPVFRDYVFRSMQEFYEDNVLYMEIRARLLPVYELSGEHHDEEWSVKTYQEVAQKFVETHPEFIGIKIIYSDHRSKDVAVIAESIRMAMGLRIKFPTVVAGFDLVGHEDTGHSLHDYKEALMIPAKDGVKLPYFFHAGETDWQGTSIDRNILDALMLNTTRIGHGFALSKHPAVATYSWKKDIPIEVCPISNQVLKLVSDLRNHPVATLMATGHPMVISSDDPAMFGAKGLSYDFYEVFMGIGGMKADLRTLKQLAMNSIKYSTLLESEKNTFMEIWKKRWDKFIADVATK
modifications: human ADA2 R366A, mature numbering
enzymatic activity relative to WT rHuADA2 [1]: reduced adenosine deaminase activity | adenosine deaminase activity mU/mL [1]: 34.3 mU/mL | ΔA/min, adenosine deaminase activity [1]: 14.9 | % activity vs. WT [1]: 44% | heparin binding compared to WT [2]: reduced heparin binding | Heparin Column Binding [2]: Reduced

B3: K14E: ADA2 variant SEQ ID NO:15 (protein)
chain: IDETRAHLLLEEKMMRLGGRLVLNTKEELANERLMTLKIAEMKEAMRTLIFPPSMHFFQAKHLIERSQVFNILRMMPKGAALHLHDIGIVTMDWLVRNVTYRPHCHICFTPRGIMQFRFAHPTPRPSEKCSKWILLEDYRKRVQNVTEFDDSLLRNFTLVTQHPEVIYTNQNVVWSKFETIFFTISGLIHYAPVFRDYVFRSMQEFYEDNVLYMEIRARLLPVYELSGEHHDEEWSVKTYQEVAQKFVETHPEFIGIKIIYSDHRSKDVAVIAESIRMAMGLRIKFPTVVAGFDLVGHEDTGHSLHDYKEALMIPAKDGVKLPYFFHAGETDWQGTSIDRNILDALMLNTTRIGHGFALSKHPAVRTYSWKKDIPIEVCPISNQVLKLVSDLRNHPVATLMATGHPMVISSDDPAMFGAKGLSYDFYEVFMGIGGMKADLRTLKQLAMNSIKYSTLLESEKNTFMEIWKKRWDKFIADVATK
modifications: human ADA2 K11E, mature numbering
enzymatic activity relative to WT rHuADA2 [1]: improved enzymatic activity | adenosine deaminase activity mU/mL [1]: 89.1 mU/mL | ΔA/min, adenosine deaminase activity [1]: 38.8 | % activity vs. WT [1]: 114.2% | heparin binding compared to WT [2]: not attenuated

B4: K374A: ADA2 variant SEQ ID NO:19 (protein)
chain: IDETRAHLLLKEKMMRLGGRLVLNTKEELANERLMTLKIAEMKEAMRTLIFPPSMHFFQAKHLIERSQVFNILRMMPKGAALHLHDIGIVTMDWLVRNVTYRPHCHICFTPRGIMQFRFAHPTPRPSEKCSKWILLEDYRKRVQNVTEFDDSLLRNFTLVTQHPEVIYTNQNVVWSKFETIFFTISGLIHYAPVFRDYVFRSMQEFYEDNVLYMEIRARLLPVYELSGEHHDEEWSVKTYQEVAQKFVETHPEFIGIKIIYSDHRSKDVAVIAESIRMAMGLRIKFPTVVAGFDLVGHEDTGHSLHDYKEALMIPAKDGVKLPYFFHAGETDWQGTSIDRNILDALMLNTTRIGHGFALSKHPAVRTYSWAKDIPIEVCPISNQVLKLVSDLRNHPVATLMATGHPMVISSDDPAMFGAKGLSYDFYEVFMGIGGMKADLRTLKQLAMNSIKYSTLLESEKNTFMEIWKKRWDKFIADVATK
modifications: human ADA2 K371A, mature numbering
adenosine deaminase activity mU/mL [1]: 59.2 mU/mL | ΔA/min, adenosine deaminase activity [1]: 25.8 | % activity vs. WT [1]: 75.9% | Heparin Column Binding [2]: Reduced

B5: K375A: ADA2 variant SEQ ID NO:22 (protein)
chain: IDETRAHLLLKEKMMRLGGRLVLNTKEELANERLMTLKIAEMKEAMRTLIFPPSMHFFQAKHLIERSQVFNILRMMPKGAALHLHDIGIVTMDWLVRNVTYRPHCHICFTPRGIMQFRFAHPTPRPSEKCSKWILLEDYRKRVQNVTEFDDSLLRNFTLVTQHPEVIYTNQNVVWSKFETIFFTISGLIHYAPVFRDYVFRSMQEFYEDNVLYMEIRARLLPVYELSGEHHDEEWSVKTYQEVAQKFVETHPEFIGIKIIYSDHRSKDVAVIAESIRMAMGLRIKFPTVVAGFDLVGHEDTGHSLHDYKEALMIPAKDGVKLPYFFHAGETDWQGTSIDRNILDALMLNTTRIGHGFALSKHPAVRTYSWKADIPIEVCPISNQVLKLVSDLRNHPVATLMATGHPMVISSDDPAMFGAKGLSYDFYEVFMGIGGMKADLRTLKQLAMNSIKYSTLLESEKNTFMEIWKKRWDKFIADVATK
modifications: human ADA2 K372A, mature numbering
adenosine deaminase activity mU/mL [1]: 81.8 mU/mL | ΔA/min, adenosine deaminase activity [1]: 35.5 | % activity vs. WT [1]: 104.8% | Heparin Column Binding [2]: Reduced

B6: R369D: ADA2 variant SEQ ID NO:32 (protein)
chain: IDETRAHLLLKEKMMRLGGRLVLNTKEELANERLMTLKIAEMKEAMRTLIFPPSMHFFQAKHLIERSQVFNILRMMPKGAALHLHDIGIVTMDWLVRNVTYRPHCHICFTPRGIMQFRFAHPTPRPSEKCSKWILLEDYRKRVQNVTEFDDSLLRNFTLVTQHPEVIYTNQNVVWSKFETIFFTISGLIHYAPVFRDYVFRSMQEFYEDNVLYMEIRARLLPVYELSGEHHDEEWSVKTYQEVAQKFVETHPEFIGIKIIYSDHRSKDVAVIAESIRMAMGLRIKFPTVVAGFDLVGHEDTGHSLHDYKEALMIPAKDGVKLPYFFHAGETDWQGTSIDRNILDALMLNTTRIGHGFALSKHPAVDTYSWKKDIPIEVCPISNQVLKLVSDLRNHPVATLMATGHPMVISSDDPAMFGAKGLSYDFYEVFMGIGGMKADLRTLKQLAMNSIKYSTLLESEKNTFMEIWKKRWDKFIADVATK
modifications: human ADA2 R366D, mature numbering
adenosine deaminase activity mU/mL [1]: 80.2 mU/mL | ΔA/min, adenosine deaminase activity [1]: 34.9 | % activity vs. WT [1]: 102.8% | Heparin Column Binding [2]: Reduced

B7: K14A/R23A: ADA2 variant SEQ ID NO:55 (protein)
chain: IDETRAHLLLAEKMMRLGGALVLNTKEELANERLMTLKIAEMKEAMRTLIFPPSMHFFQAKHLIERSQVFNILRMMPKGAALHLHDIGIVTMDWLVRNVTYRPHCHICFTPRGIMQFRFAHPTPRPSEKCSKWILLEDYRKRVQNVTEFDDSLLRNFTLVTQHPEVIYTNQNVVWSKFETIFFTISGLIHYAPVFRDYVFRSMQEFYEDNVLYMEIRARLLPVYELSGEHHDEEWSVKTYQEVAQKFVETHPEFIGIKIIYSDHRSKDVAVIAESIRMAMGLRIKFPTVVAGFDLVGHEDTGHSLHDYKEALMIPAKDGVKLPYFFHAGETDWQGTSIDRNILDALMLNTTRIGHGFALSKHPAVRTYSWKKDIPIEVCPISNQVLKLVSDLRNHPVATLMATGHPMVISSDDPAMFGAKGLSYDFYEVFMGIGGMKADLRTLKQLAMNSIKYSTLLESEKNTFMEIWKKRWDKFIADVATK
modifications: human ADA2 K11A/R20A, mature numbering
adenosine deaminase activity mU/mL [1]: 96.9 mU/mL | ΔA/min, adenosine deaminase activity [1]: 42.1 | % activity vs. WT [1]: 124.2% | Heparin Column Binding [2]: Reduced

B8: K14A/R23A/K374A: ADA2 variant SEQ ID NO:56 (protein)
chain: IDETRAHLLLAEKMMRLGGALVLNTKEELANERLMTLKIAEMKEAMRTLIFPPSMHFFQAKHLIERSQVFNILRMMPKGAALHLHDIGIVTMDWLVRNVTYRPHCHICFTPRGIMQFRFAHPTPRPSEKCSKWILLEDYRKRVQNVTEFDDSLLRNFTLVTQHPEVIYTNQNVVWSKFETIFFTISGLIHYAPVFRDYVFRSMQEFYEDNVLYMEIRARLLPVYELSGEHHDEEWSVKTYQEVAQKFVETHPEFIGIKIIYSDHRSKDVAVIAESIRMAMGLRIKFPTVVAGFDLVGHEDTGHSLHDYKEALMIPAKDGVKLPYFFHAGETDWQGTSIDRNILDALMLNTTRIGHGFALSKHPAVRTYSWAKDIPIEVCPISNQVLKLVSDLRNHPVATLMATGHPMVISSDDPAMFGAKGLSYDFYEVFMGIGGMKADLRTLKQLAMNSIKYSTLLESEKNTFMEIWKKRWDKFIADVATK
modifications: human ADA2 K11A/R20A/K371A, mature numbering
adenosine deaminase activity mU/mL [1]: 72.8 mU/mL | ΔA/min, adenosine deaminase activity [1]: 31.7 | % activity vs. WT [1]: 93.3% | Heparin Column Binding [2]: Reduced
